Results published in patent US20230193235A1.

Target: RBD (a.a. 333-529) of SARS-CoV-2 S fused to the Fc region of IgG1 (SARS-CoV-2; human) (UniProt P0DTC2)
Assay: BLI, RBD-IgG1 captured on anti-human Fc sensor, dimeric sACE22 as analyte (avid)

untagged sACE22.v2.4 manufactured in ExpiCHO-S cells (from UniProt Q9BYF1 19-732) (receptor)
kon: 200000 M⁻¹ s⁻¹
